Assay results: patent publication US20220356230A1

These substances were tested against VSV G protein on VSV delta G pseudotyped virus-like particles (Vesicular stomatitis virus) (UniProt P03522).
Substance mAb10933 (antibody) has a VSV-VLP Binding Signal (RLU) of 507 RLU.
mAb10934 (antibody) gave a VSV-VLP Binding Signal (RLU) of 3880 RLU.
mAb10936 (antibody) gave a VSV-VLP Binding Signal (RLU) of 2320 RLU.
mAb10987 (antibody) gave a VSV-VLP Binding Signal (RLU) of 1840 RLU.
